Laboratory results published in paper PMC12086574 (Molecular Biology of the Cell, 2025).

Biological target: the molecule itself
Experiment: SEC

B1: His6-SEPT7G (domain or fragment)
chain: GFEFTLMVVGESGLGKSTLINSLFLTDLYSPEYPGPSHRIKKTVQVEQSKVLIKEGGVQLLLTIVDTPGFGDAVDNSNCWQPVIDYIDSKFEDYLNAESRVNRRQMPDNRVQCCLYFIAPSGHGLKPLDIEFMKRLHEKVNIIPLIAKADTLTPEECQQFKKQIMKEIQEHKIKIYEFPETDDEEENKLVKKIKDRLPLAVVGSNTIIEVNGKRVRGRQYPWGVAEVENGEHCDFTILRNMLIRTHMQDLKDVTNNVHYENYRSRKLAAVT
In the case of B1, the “stoichiometry N” value is reported as 2.
